Experimental data reported in US20180142007A1 (AXON NEUROSCIENCE, published 2018).

T1: tau peptide 314-342 (human)
T1 construct: Synthetic peptide (EZBiolabs), numbered on tau 2N4R
T1 peptide: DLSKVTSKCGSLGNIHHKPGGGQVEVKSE

T2: tau peptide 256-285 (human)
T2 construct: Synthetic peptide (EZBiolabs), numbered on tau 2N4R
T2 peptide: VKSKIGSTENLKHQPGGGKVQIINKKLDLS

T3: tau peptide 352-380 (human)
T3 construct: Synthetic peptide (EZBiolabs), numbered on tau 2N4R
T3 peptide: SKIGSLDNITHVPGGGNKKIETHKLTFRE

T4: tau peptide 282-311 (human)
T4 construct: Synthetic peptide (EZBiolabs), numbered on tau 2N4R; also called peptide derived from MTBRII
T4 peptide: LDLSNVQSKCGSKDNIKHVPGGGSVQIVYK


What was measured:
[1] = target: T5, misdisordered truncated tau 151-391/4R (human, UniProt P10636 468-708); test: assay not named in the sentence (tau binding assay of the examples)
T5 construct: Recombinant, from clone tau40 in pET-17b, expressed in E. coli; numbered on the longest human tau isoform 2N4R (441 aa); An added start methionine is not mentioned; also called tauΔ(1-150;392-441)/4R; misdisordered tau II

[2] = target: T5, misdisordered truncated tau 151-391/4R; test: binding ELISA of IgG4 versions, plate coated with Tau 151-391/4R
tau peptide 314-342 = target: T1, tau peptide 314-342; test: direct ELISA, tau peptide coated on plate
tau peptide 256-285 = target: T2, tau peptide 256-285; test: direct ELISA, tau peptide coated on plate
tau peptide 352-380 = target: T3, tau peptide 352-380; test: direct ELISA, tau peptide coated on plate
tau peptide 282-311 = target: T4, tau peptide 282-311; test: direct ELISA, tau peptide coated on plate
[3] = target: T5, misdisordered truncated tau 151-391/4R; test: cell-based or functional assay

T5 sequence (P10636 468-708): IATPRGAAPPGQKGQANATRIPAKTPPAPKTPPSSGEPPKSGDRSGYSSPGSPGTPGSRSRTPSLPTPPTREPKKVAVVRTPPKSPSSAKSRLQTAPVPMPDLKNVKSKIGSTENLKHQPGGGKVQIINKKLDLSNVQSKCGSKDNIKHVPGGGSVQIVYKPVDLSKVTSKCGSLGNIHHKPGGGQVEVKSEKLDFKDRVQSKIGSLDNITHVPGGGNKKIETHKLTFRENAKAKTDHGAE

| Binder | binding result (tau peptide 314-342) | binding result (tau peptide 352-380) | binding result (tau peptide 282-311) | also measured |
| --- | --- | --- | --- | --- |
| AX038, humanized DC8E8 RHM/RKB (isotype not stated where tested) (antibody, V domains shown, also called RHM version) VH: QVQLVQSGAEVKKPGSSVKVSCKASGYIFSDYVISWVRQAPGQGLEWMGEIFPRSGSTYYNEKFKGRVTITADKSTSTAYMELSSLRSEDTAVYYCARDYYGTSFAMDYWGQGTLVTVSS VL: DIVMSQSPLSLPVTPGEPASISCKSSQSLLNSRTRKNYLAWYLQKPGQSPQLLIYWASTRESGVPDRFTGSGSGTDFTLKISRVEAEDVGVYYCKQSFYLRTFGQGTKVEIKR | – | – | – | binding result [1]: binds |
| AX028-IgG4, RHD heavy chain with chimeric DC8E8 kappa light chain, IgG4 isotype (antibody, V domains shown, also called AXON028-IgG4; RHD/VK) VH: QVQLVQSGAEVKKPGSSVKVSCKASGYTFSDYVISWVRQAPGQGLEWMGEIFPRSGSTYYNEKFKGRVTITADKSTSTAYMELSSLRSEDTAVYYCARDYYGTSFAMDYWGQGTLVTVSS VL: DIVMSQSPSSLAVSAGEKVTMSCKSSQSLLNSRTRKNYLAWYQQKPGQSPKLLIYWASTRESGVPDRFTGSGSGTDFTLTISSVQAEDLAVYYCKQSFYLRTFGGGTKLDIKR | – | – | – | binding result [2]: binds |
| AX014, humanized DC8E8 RHB/RKB (isotype not stated where tested) (antibody, 2 (a CDR)) VH: QVQLVQSGPEVKKPGSSVKVPCKASGYIFTDYVISWVKQAPGQGLEWIGEIFPRSGSTYYNEKFKGKATLTADKSTSTAYMELSSLRSEDTAVYFCARDYYGTSFAMDYWGQGTLVTVSS light: DIVMSQSPLSLPVTPGEPASISCKSSQSLLNSRTRKNYLAWYLQKPGQSPQLLIYWASTRESGVPDRFTGSGSGTDFTLKISRVEAEDVGVYYCKQSFYLRTFGQGTKVEIKRTVAAPSVFIFPPSDEQLKSGTASVVCLLNNFYPREAKVQWKVDNALQSGNSQESVTEQDSKDSTYSLSSTLTLSKADYEKHKVYACEVTHQGLSSPVTKSFNRGEC | – | – | – | binding result [1]: binds |
| AX037, humanized DC8E8 RHM/RKA (isotype not stated where tested) (antibody, V domains shown, also called RHM version) VH: QVQLVQSGAEVKKPGSSVKVSCKASGYIFSDYVISWVRQAPGQGLEWMGEIFPRSGSTYYNEKFKGRVTITADKSTSTAYMELSSLRSEDTAVYYCARDYYGTSFAMDYWGQGTLVTVSS VL: DIVMTQSPLSLPVTPGEPASISCKSSQSLLNSRTRKNYLAWYLQKPGQSPQLLIYWASTRESGVPDRFTGSGSGTDFTLKISRVEAEDVGVYYCKQSFYLRTFGQGTKVEIKR | – | – | – | binding result [1]: binds |
| AX026-IgG4, RHB heavy chain with chimeric DC8E8 kappa light chain, IgG4 isotype (antibody, V domains shown, also called AXON026-IgG4; RHB/VK) VH: QVQLVQSGPEVKKPGSSVKVPCKASGYIFTDYVISWVKQAPGQGLEWIGEIFPRSGSTYYNEKFKGKATLTADKSTSTAYMELSSLRSEDTAVYFCARDYYGTSFAMDYWGQGTLVTVSS VL: DIVMSQSPSSLAVSAGEKVTMSCKSSQSLLNSRTRKNYLAWYQQKPGQSPKLLIYWASTRESGVPDRFTGSGSGTDFTLTISSVQAEDLAVYYCKQSFYLRTFGGGTKLDIKR | – | – | – | binding result [2]: binds |
| AX029-IgG4, RHE heavy chain with chimeric DC8E8 kappa light chain, IgG4 isotype (antibody, V domains shown, also called AXON029-IgG4; RHE/VK) VH: QVQLVQSGAEVKKPGSSVKVSCKASGGIFSDYVISWVRQAPGQGLEWMGEIFPRSGSTYYNEKFKGRVTITADKSTSTAYMELSSLRSEDTAVYYCARDYYGTSFAMDYWGQGTLVTVSS VL: DIVMSQSPSSLAVSAGEKVTMSCKSSQSLLNSRTRKNYLAWYQQKPGQSPKLLIYWASTRESGVPDRFTGSGSGTDFTLTISSVQAEDLAVYYCKQSFYLRTFGGGTKLDIKR | – | – | – | binding result [2]: binds |
| AX001, humanized DC8E8 RHA/RKA (isotype not stated where tested) (antibody, V domains shown, also called initial humanized version) VH: QVQLVQSGAEVKKPGSSVKVSCKASGGTFSDYVISWVRQAPGQGLEWMGEIFPRSGSTYYNEKFKGRVTITADKSTSTAYMELSSLRSEDTAVYYCARDYYGTSFAMDYWGQGTLVTVSS VL: DIVMTQSPLSLPVTPGEPASISCKSSQSLLNSRTRKNYLAWYLQKPGQSPQLLIYWASTRESGVPDRFTGSGSGTDFTLKISRVEAEDVGVYYCKQSFYLRTFGQGTKVEIKR | – | – | – | fold decrease in binding affinity relative to chimeric DC8E8 [1]: 10 fold |
| AX004-IgG1, humanized DC8E8 RHD/RKA, IgG1 isotype (antibody, Expressed in Expi293, purified on Protein A and by size exclusion) heavy: not shown light: DIVMTQSPLSLPVTPGEPASISCKSSQSLLNSRTRKNYLAWYLQKPGQSPQLLIYWASTRESGVPDRFTGSGSGTDFTLKISRVEAEDVGVYYCKQSFYLRTFGQGTKVEIKRTVAAPSVFIFPPSDEQLKSGTASVVCLLNNFYPREAKVQWKVDNALQSGNSQESVTEQDSKDSTYSLSSTLTLSKADYEKHKVYACEVTHQGLSSPVTKSFNRGEC | binds | binds | binds | binding result (tau peptide 256-285): binds; amount of fibrillized pathological tau forms (Thioflavin T fluorescence), antibody at 10 uM [3]: < 3% |
| AX004-IgG4, humanized DC8E8 RHD/RKA, IgG4 isotype (antibody, Expressed in Expi293; also called AXON004-IgG4) heavy: not shown light: DIVMTQSPLSLPVTPGEPASISCKSSQSLLNSRTRKNYLAWYLQKPGQSPQLLIYWASTRESGVPDRFTGSGSGTDFTLKISRVEAEDVGVYYCKQSFYLRTFGQGTKVEIKRTVAAPSVFIFPPSDEQLKSGTASVVCLLNNFYPREAKVQWKVDNALQSGNSQESVTEQDSKDSTYSLSSTLTLSKADYEKHKVYACEVTHQGLSSPVTKSFNRGEC | binds | binds | binds | binding result (tau peptide 256-285): binds; amount of fibrillized pathological tau forms (Thioflavin T fluorescence), antibody at 10 uM [3]: < 3% |
| AX002-IgG4, humanized DC8E8 RHB/RKA, IgG4 isotype (antibody, also called AXON002-IgG4) heavy: not shown light: DIVMTQSPLSLPVTPGEPASISCKSSQSLLNSRTRKNYLAWYLQKPGQSPQLLIYWASTRESGVPDRFTGSGSGTDFTLKISRVEAEDVGVYYCKQSFYLRTFGQGTKVEIKRTVAAPSVFIFPPSDEQLKSGTASVVCLLNNFYPREAKVQWKVDNALQSGNSQESVTEQDSKDSTYSLSSTLTLSKADYEKHKVYACEVTHQGLSSPVTKSFNRGEC | – | – | – | binding result [2]: binds |
| AX014-IgG4, humanized DC8E8 RHB/RKB, IgG4 isotype (antibody, also called AXON014-IgG4) heavy: not shown light: DIVMSQSPLSLPVTPGEPASISCKSSQSLLNSRTRKNYLAWYLQKPGQSPQLLIYWASTRESGVPDRFTGSGSGTDFTLKISRVEAEDVGVYYCKQSFYLRTFGQGTKVEIKRTVAAPSVFIFPPSDEQLKSGTASVVCLLNNFYPREAKVQWKVDNALQSGNSQESVTEQDSKDSTYSLSSTLTLSKADYEKHKVYACEVTHQGLSSPVTKSFNRGEC | – | – | – | binding result [2]: binds |
| AX005-IgG1, humanized DC8E8 RHE/RKA, IgG1 isotype (antibody, Expressed in Expi293, purified on Protein A and by size exclusion) heavy: not shown light: DIVMTQSPLSLPVTPGEPASISCKSSQSLLNSRTRKNYLAWYLQKPGQSPQLLIYWASTRESGVPDRFTGSGSGTDFTLKISRVEAEDVGVYYCKQSFYLRTFGQGTKVEIKRTVAAPSVFIFPPSDEQLKSGTASVVCLLNNFYPREAKVQWKVDNALQSGNSQESVTEQDSKDSTYSLSSTLTLSKADYEKHKVYACEVTHQGLSSPVTKSFNRGEC | binds | binds | binds | – |
| AX016-IgG1, humanized DC8E8 RHD/RKB, IgG1 isotype (antibody, Expressed in Expi293, purified on Protein A and by size exclusion) heavy: not shown light: DIVMSQSPLSLPVTPGEPASISCKSSQSLLNSRTRKNYLAWYLQKPGQSPQLLIYWASTRESGVPDRFTGSGSGTDFTLKISRVEAEDVGVYYCKQSFYLRTFGQGTKVEIKRTVAAPSVFIFPPSDEQLKSGTASVVCLLNNFYPREAKVQWKVDNALQSGNSQESVTEQDSKDSTYSLSSTLTLSKADYEKHKVYACEVTHQGLSSPVTKSFNRGEC | binds | binds | binds | binding result (tau peptide 256-285): binds; amount of fibrillized pathological tau forms (Thioflavin T fluorescence), antibody at 10 uM [3]: < 3% |
| AX017-IgG4, humanized DC8E8 RHE/RKB, IgG4 isotype (antibody, Expressed in Expi293; also called AXON017-IgG4) heavy: not shown light: DIVMSQSPLSLPVTPGEPASISCKSSQSLLNSRTRKNYLAWYLQKPGQSPQLLIYWASTRESGVPDRFTGSGSGTDFTLKISRVEAEDVGVYYCKQSFYLRTFGQGTKVEIKRTVAAPSVFIFPPSDEQLKSGTASVVCLLNNFYPREAKVQWKVDNALQSGNSQESVTEQDSKDSTYSLSSTLTLSKADYEKHKVYACEVTHQGLSSPVTKSFNRGEC | binds | binds | binds | – |
| AX016-IgG4, humanized DC8E8 RHD/RKB, IgG4 isotype (antibody, Expressed in Expi293; also called AXON016-IgG4) heavy: not shown light: DIVMSQSPLSLPVTPGEPASISCKSSQSLLNSRTRKNYLAWYLQKPGQSPQLLIYWASTRESGVPDRFTGSGSGTDFTLKISRVEAEDVGVYYCKQSFYLRTFGQGTKVEIKRTVAAPSVFIFPPSDEQLKSGTASVVCLLNNFYPREAKVQWKVDNALQSGNSQESVTEQDSKDSTYSLSSTLTLSKADYEKHKVYACEVTHQGLSSPVTKSFNRGEC | binds | binds | binds | binding result (tau peptide 256-285): binds; amount of fibrillized pathological tau forms (Thioflavin T fluorescence), antibody at 10 uM [3]: < 3% |
| AX017-IgG1, humanized DC8E8 RHE/RKB, IgG1 isotype (antibody, Expressed in Expi293, purified on Protein A and by size exclusion) heavy: not shown light: DIVMSQSPLSLPVTPGEPASISCKSSQSLLNSRTRKNYLAWYLQKPGQSPQLLIYWASTRESGVPDRFTGSGSGTDFTLKISRVEAEDVGVYYCKQSFYLRTFGQGTKVEIKRTVAAPSVFIFPPSDEQLKSGTASVVCLLNNFYPREAKVQWKVDNALQSGNSQESVTEQDSKDSTYSLSSTLTLSKADYEKHKVYACEVTHQGLSSPVTKSFNRGEC | binds | binds | binds | – |
| AX005-IgG4, humanized DC8E8 RHE/RKA, IgG4 isotype (antibody, Expressed in Expi293; also called AXON005-IgG4) heavy: not shown light: DIVMTQSPLSLPVTPGEPASISCKSSQSLLNSRTRKNYLAWYLQKPGQSPQLLIYWASTRESGVPDRFTGSGSGTDFTLKISRVEAEDVGVYYCKQSFYLRTFGQGTKVEIKRTVAAPSVFIFPPSDEQLKSGTASVVCLLNNFYPREAKVQWKVDNALQSGNSQESVTEQDSKDSTYSLSSTLTLSKADYEKHKVYACEVTHQGLSSPVTKSFNRGEC | binds | binds | binds | – |
